We go through 8 molecules from US20240218057A1 (ROCKEFELLER UNIVERSITY, published 2024).

To fix the notation:
B1: C1014 (antibody, V domains shown)
VH: QVQLQESGPGLVRPSQTLSLTCTVSGGSIGSGAYWSWIRQHPAKGLEWIGYVYYSGSTFYNPSLETRVSISVDISKDQFSLELTSVTVADTAVYYCAREKIEVVSIEMRPHYYGIDVWGQGTTVTVSS
VL: EIVMTQSPATLSVSPGERATLSCRASQSISSNLAWYQQKPGQPPRLLIYGASTRATGIPARFSGSGSGTEFTLTISSLQSEDIAVYYCQHYNNWPPWTFGQGTKVDIK
B2: C1010 (antibody, V domains shown)
VH: QVQLVESGGGVVQPGRSLRLSCAASGFTFSSYAMHWVRQAPGKGLEWVAVISYDGSNKYYADSVKGRFTISRDNSKNTLYLQMNSLRAEDTAVYYCAKKGQPYCGGDCYFYYFDYWGQGTLVTVSS
VL: DIQMTQSPSSLSASLGDRVTITCQASQDISNYLNWYQQKPGKAPKLLIYDASNLETGVPSRFSGSGSGTDFTFTISSLQPEDIATYYCQQYDNLPPITFGQGTRLEIK
B3: C1011 (antibody, V domains shown)
VH: QVQLVESGGGVVQPGRSLRLSCAVSGFTFSHYAMHWVRQAPGKGLEWVAVISYDGADKYYADSVRGRFTIARDNSKNTLFLQMSSLRPEDTAVYYCAKKGQPYCGGDCHFYYLDYWGQGTLVTVSS
VL: DIQMTQSPSSLSASVGDRVTITCQASQDISNHLNWYQQKPGKAPKLLIYDASNLETGVPSRFSGSGSGTDFTFTISSLQAEDIATYYCQQYDNLPPITFGQGTRLEIK
B4: C1012 (antibody, V domains shown)
VH: QVQLVQSGAEVKKPGSSVKVSCKASGGTVNNYAINWVRQAPGQGLEWMGGIVPIFGTPNYAQKFQGRVTITADESTSTAYMELSSLRSEDTAVYYCAKVSLTLPIAAAPRFWFDSWGQGTLVTVSS
VL: EIVMTQSPATLSVSPGERATLSCRASQSVSSHLAWYQQKPGQAPRLLIYGASTRATGIPARFSGSGSGTEFTLTISSLQSEDFAVYYCQQYHNWPPALTFGGGTKVEIK
B5: C1013 (antibody, V domains shown)
VH: QVQLVQSGVEVKKPGSSVKVSCKASGGTFTDYAFSWVRQAPGQGLEWMGGIVPIFATPDYAEKFRGRVTITADESTSTAYMELSTLKSEDTAVYYCARASLTLPIRAAPRFWFDAWGQGTLVTVSS
VL: EIVMTQSPATLSVSPGERATLSCRASQGVSTHLAWYQQKPGQAPRLLIYGASTRATGIPARFSGSGSGTEFTLTISSLQSEDFAVYYCQQYHKWPPALTFGGGTKVEIK
B6: C1009 (antibody, V domains shown)
VH: EVQLVESGGGLLQPGGSLRLSCAASGFSVSSNYMTWVRQAPGKGLEWVAAIYSGDSTYYVDSVKGRFIISRDNSKNTVYLHLSSLRAEDTAVYYCARLVGYDFRSGSDGGYFDYWGHGTLVTVSS
VL: QSALTQPASVSGSPGQSITISCTGTSSDIGNYNLVSWYQQHPGKAPKLMIYDVSKRPSGVSNRFSGSKSGNTASLTISGLQAEDETDYYCCSYAGSSTWVFGGGTKLTVL
B7: C1016 (antibody, V domains shown)
VH: QVQLQESGPGLVKPSGTLSLTCAVSGGPISSNHWWSWVRQPPGKGLEWIGEVYRNGNTNYHPSLKSRVTMSIDNSKNQFSLSLTSVTAADTAVYYCARGGDLAMGPEYLDFWGQGTLVTVSS
VL: QSALTQPASVSGSPGQSITISCTGTSSDVGANNYVSWYQQHPGKAPKLMIYDVINRPSGVSDRFSGSKSGNTASLTISGLQAEDEADYYCSSFSTSSTLLFGGGTKLTVL
B8: C1018 (antibody, V domains shown)
VH: QVQLVESGGGVVQPGRSLRLLCAASGFTFNTHGMHWVRQAPGKGLEWVAVIWFDGSNKYYADSVKGRFTISRDNSTNTLYLQMNSLRAEDTAVYYCARVYGGLPYYYAIDVWGQGTTVTVSS
VL: QSVLTQPPSVSGAPGQRVTISCAGSSSNIGAGYGVHWSQQLPGRPPKLLIYGDSNRPSGVPDRFSGSNSGTSASLAITGLQAEDEAVYYCQSYDRSLRAWVFGGGTKLSVL

In general, EC50 refers to the concentration at which the effect is half-maximal. Low values mean a more potent agent, high ones a less potent agent.

The target in this experiment is T1, SARS-COV-2 RBD (SARS-COV-2, UniProt P0DTC2 319-539).
T1 construct: also called WT RBD
Put plainly: ELISA, RBD coated on plate.
As for B1, the EC50 worked out at 2.95 ng/mL.

For B2, the response was half-maximal at 2.45 ng/mL (EC50).

B3 had an EC50 of 1.49 ng/mL.

Consider B4, for which a half-maximal effect (EC50) was put at 3.29 ng/mL.

B5 displayed an EC50 of 8.92 ng/mL.

B6 showed an EC50 of 1.34 ng/mL.

B7 yielded an EC50 of 2.16 ng/mL.

B8 displayed an EC50 of 3.09 ng/mL.
